Test results as given in patent US20190201487.

Molecular target: T1, neonatal NET-Inhibitory Factor (nNIF)
T1 chain: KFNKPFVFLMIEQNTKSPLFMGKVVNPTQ

B1: neutrophil elastase (NE) (protein)
chain: IVGGRRARPHAWPFMVSLQLRGGHFCGATLIAPNFVMSAAHCVANVNVRAVRVVLGAHNLSRREPTRQVFAVQRIFENGYDPVNLLNDIVILQLNGSATINANVQVAQLPAQGRRLGNGVQCLAMGWGLLGRNRGIASVLQELNVTVVTSLCRRSNVCTLVRGRQAGVCFGDSGSPLVCNGLIHGIASFVRGGCASGLYPDAFAPVAQFVNWIDSIIQ
NE enzyme activity in vitro (cleavage of (MeOSuc)-AAPV-(pNA)): neither nNIF nor CRISPP inhibited NE activity
